Measurements published in paper doi:10.1101/2020.06.16.154534 (bioRxiv, 2020).
Read-outs that look alike come from different tables or passages of the source.

How the values were obtained:
SAXS [1] = target: the molecule itself; experiment: SAXS
SAXS [2] = target: the molecule itself; experiment: SAXS; remark: listed apart in the source

B1: apo-bacterioferritin from E. coli (core-free, heme B bound) (natural protein)
chain: not shown
stoichiometry N (SAXS [1]): 2 | stoichiometry N (SAXS [2]): 24
